Data: US20190389910A1 (ORUM THERAPEUTICS, published 2019)
Positions count from the first letter of the chain named.

What was measured:
[1] = biological target: human recombinant integrin αvβ6 (αv extracellular domain-acidic leucine zipper-His×6 with β6 extracellular domain-basic leucine zipper) (human) (UniProt P06756); test: BLI (Octet), antibody captured on anti-human IgG Fc (AHC) biosensor, integrin αvβ6 3.1-100 nM as analyte, divalent cations
[2] = biological target: human recombinant EpCAM antigen (extracellular domain, residues 1 to 265, fused with 6×His tag and Avi-tag) (human) (UniProt P16422); test: SPR (Biacore 2000), EpCAM on CM5 chip (about 211 RU), antibody 6.25-100 nM as analyte
human recombinant EpCAM antigen (extracellular domain, residues 1 to 265, fused with 6×His tag and Avi-tag) (human), sequence (P16422 24-265 limits assumed, form in doubt): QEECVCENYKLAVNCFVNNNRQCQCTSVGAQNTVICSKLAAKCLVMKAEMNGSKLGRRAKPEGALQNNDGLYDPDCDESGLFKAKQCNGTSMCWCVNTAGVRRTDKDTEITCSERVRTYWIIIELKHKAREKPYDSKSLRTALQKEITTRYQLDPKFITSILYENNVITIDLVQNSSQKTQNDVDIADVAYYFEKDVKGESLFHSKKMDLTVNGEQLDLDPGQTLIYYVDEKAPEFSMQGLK

[3] = biological target: human recombinant EpCAM antigen (extracellular domain, residues 1 to 265, fused with 6×His tag and Avi-tag) (human) (UniProt P16422); test: SPR (Biacore 2000), EpCAM on CM5 chip (about 367 RU), antibody 6.25-100 nM as analyte
[4] = biological target: human recombinant integrin αvβ5 (αv extracellular domain-acidic leucine zipper-His×6 with β5 extracellular domain-basic leucine zipper) (human) (UniProt P06756); test: BLI (Octet), antibody captured on anti-human IgG Fc (AHC) biosensor, integrin αvβ5 3.1-100 nM as analyte, divalent cations
human recombinant integrin αvβ5 (αv extracellular domain-acidic leucine zipper-His×6 with β5 extracellular domain-basic leucine zipper) (human), sequence (P06756 other isoform, or with tags, fused parts or gaps, chain 1 of 2): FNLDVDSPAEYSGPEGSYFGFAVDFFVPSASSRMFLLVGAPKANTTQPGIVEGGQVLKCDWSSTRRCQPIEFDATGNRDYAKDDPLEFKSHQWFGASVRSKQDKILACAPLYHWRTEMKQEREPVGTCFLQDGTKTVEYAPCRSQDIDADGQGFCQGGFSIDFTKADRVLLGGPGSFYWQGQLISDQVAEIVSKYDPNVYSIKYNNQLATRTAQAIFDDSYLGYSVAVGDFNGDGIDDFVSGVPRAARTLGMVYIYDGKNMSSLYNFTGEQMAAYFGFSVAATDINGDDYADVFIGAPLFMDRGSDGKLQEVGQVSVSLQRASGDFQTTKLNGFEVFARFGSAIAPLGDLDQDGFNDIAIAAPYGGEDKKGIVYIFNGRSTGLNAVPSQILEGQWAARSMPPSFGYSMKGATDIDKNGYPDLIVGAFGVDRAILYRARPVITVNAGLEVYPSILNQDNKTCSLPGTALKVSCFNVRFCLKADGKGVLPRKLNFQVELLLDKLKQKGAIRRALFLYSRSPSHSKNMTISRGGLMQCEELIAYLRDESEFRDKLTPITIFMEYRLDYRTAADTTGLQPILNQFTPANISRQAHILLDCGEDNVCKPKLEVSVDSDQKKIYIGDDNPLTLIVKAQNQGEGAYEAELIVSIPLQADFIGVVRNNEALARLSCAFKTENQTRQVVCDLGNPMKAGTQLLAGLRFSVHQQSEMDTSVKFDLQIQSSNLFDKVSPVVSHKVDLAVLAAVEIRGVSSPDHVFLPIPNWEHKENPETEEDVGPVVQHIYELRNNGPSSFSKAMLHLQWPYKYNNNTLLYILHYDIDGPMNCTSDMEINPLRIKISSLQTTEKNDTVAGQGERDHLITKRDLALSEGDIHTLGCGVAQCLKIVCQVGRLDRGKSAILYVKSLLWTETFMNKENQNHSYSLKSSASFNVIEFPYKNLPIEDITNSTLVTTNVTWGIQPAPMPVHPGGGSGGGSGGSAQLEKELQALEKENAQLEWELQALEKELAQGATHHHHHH
human recombinant integrin αvβ5 (αv extracellular domain-acidic leucine zipper-His×6 with β5 extracellular domain-basic leucine zipper) (human), sequence (chain, as listed by the source, chain 2 of 2): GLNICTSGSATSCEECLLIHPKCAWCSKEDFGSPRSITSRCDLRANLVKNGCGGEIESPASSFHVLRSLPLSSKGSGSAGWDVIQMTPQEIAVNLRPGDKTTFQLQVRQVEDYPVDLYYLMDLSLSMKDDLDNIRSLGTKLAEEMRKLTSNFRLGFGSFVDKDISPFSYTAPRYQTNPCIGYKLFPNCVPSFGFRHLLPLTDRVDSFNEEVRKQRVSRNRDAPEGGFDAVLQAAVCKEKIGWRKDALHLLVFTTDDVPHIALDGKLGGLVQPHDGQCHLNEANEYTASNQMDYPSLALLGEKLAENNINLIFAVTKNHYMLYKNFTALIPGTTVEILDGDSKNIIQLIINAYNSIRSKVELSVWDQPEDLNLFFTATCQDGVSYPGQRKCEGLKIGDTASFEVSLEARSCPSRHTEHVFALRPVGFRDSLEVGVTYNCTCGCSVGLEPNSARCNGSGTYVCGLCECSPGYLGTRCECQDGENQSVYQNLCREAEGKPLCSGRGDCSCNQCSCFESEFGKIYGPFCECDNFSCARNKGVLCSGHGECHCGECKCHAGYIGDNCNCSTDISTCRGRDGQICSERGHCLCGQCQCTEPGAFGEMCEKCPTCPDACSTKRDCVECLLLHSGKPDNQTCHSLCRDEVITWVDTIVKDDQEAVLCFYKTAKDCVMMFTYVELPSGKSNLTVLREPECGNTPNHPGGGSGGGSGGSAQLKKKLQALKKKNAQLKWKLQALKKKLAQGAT

[5] = biological target: heparan sulfate proteoglycan (HSPG) expressed on HeLa cells; test: cell-based or functional assay
[6] = biological target: human recombinant integrin αvβ6 (αv extracellular domain-acidic leucine zipper-His×6 with β6 extracellular domain-basic leucine zipper) (human) (UniProt P06756); test: BLI (Octet), antibody on AHC biosensor, integrin αvβ6 as analyte
[7] = biological target: human recombinant integrin αvβ5 (αv extracellular domain-acidic leucine zipper-His×6 with β5 extracellular domain-basic leucine zipper) (human) (UniProt P06756); test: BLI (Octet), antibody on AHC biosensor, integrin αvβ5 as analyte

human recombinant integrin αvβ6 (αv extracellular domain-acidic leucine zipper-His×6 with β6 extracellular domain-basic leucine zipper) (human), sequence (P06756 other isoform, or with tags, fused parts or gaps, chain 1 of 2): as the sequence (P06756 other isoform, or with tags, fused parts or gaps, chain 1 of 2) above
human recombinant integrin αvβ6 (αv extracellular domain-acidic leucine zipper-His×6 with β6 extracellular domain-basic leucine zipper) (human), sequence (chain, as listed by the source, chain 2 of 2): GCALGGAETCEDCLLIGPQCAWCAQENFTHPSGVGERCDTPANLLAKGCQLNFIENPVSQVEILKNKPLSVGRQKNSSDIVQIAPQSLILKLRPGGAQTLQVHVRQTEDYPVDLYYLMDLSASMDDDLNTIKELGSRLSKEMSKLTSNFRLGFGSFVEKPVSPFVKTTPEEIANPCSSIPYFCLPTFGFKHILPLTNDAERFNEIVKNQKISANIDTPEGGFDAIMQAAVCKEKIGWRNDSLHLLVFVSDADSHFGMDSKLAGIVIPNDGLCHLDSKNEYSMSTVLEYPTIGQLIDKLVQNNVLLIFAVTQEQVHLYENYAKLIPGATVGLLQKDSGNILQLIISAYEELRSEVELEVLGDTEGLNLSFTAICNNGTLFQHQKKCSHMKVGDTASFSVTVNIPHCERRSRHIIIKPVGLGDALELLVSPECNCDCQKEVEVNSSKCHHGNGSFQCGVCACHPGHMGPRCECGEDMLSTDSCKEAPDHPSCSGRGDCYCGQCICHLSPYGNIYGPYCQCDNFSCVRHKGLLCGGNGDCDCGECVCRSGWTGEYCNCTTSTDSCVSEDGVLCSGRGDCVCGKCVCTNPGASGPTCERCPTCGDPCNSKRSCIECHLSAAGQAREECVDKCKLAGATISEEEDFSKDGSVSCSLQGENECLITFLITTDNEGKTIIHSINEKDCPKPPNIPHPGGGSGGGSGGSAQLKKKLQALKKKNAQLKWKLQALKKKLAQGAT

B1: 6#4-Ras03 (antibody, part only; not given: RT22 heavy chain, light constant, V domains shown, not shown: another chain or arm of the molecule; a dimerising Fc or GST)
VL: ESFRPCQYRGDLFVLCFPSDMGSSSNDIQMTQSPSSLSASVGDRVTITCKSSQSLLNSRDGKNYLAWYQQKPGKAPKLLIYWASTRESGVPSRFSGSGSGTDFTLTISSLQPEDFATYFCQQYWYWMYTFGQGTKVEIK
modifications: chain 1: disulfide bond Cys6-Cys16 closes the cyclic peptide
[1]
  Kd: 1.52 nM
  koff: 0.000265 s⁻¹
  kon: 175000 M⁻¹ s⁻¹

B2: epRas03 (4-8) (antibody, part only; not given: RT22 heavy chain, light constant, V domains shown, not shown: another chain or arm of the molecule; a dimerising Fc or GST)
VL: RNLLCIGNLCWPMGSSSNDIQMTQSPSSLSASVGDRVTITCKSSQSLLNSRDGKNYLAWYQQKPGKAPKLLIYWASTRESGVPSRFSGSGSGTDFTLTISSLQPEDFATYFCQQYWYWMYTFGQGTKVEIK
modifications: chain 1: disulfide bond Cys5-Cys10 closes the cyclic peptide
[2]
  Kd: 3.04 nM
  koff: 0.00224 s⁻¹
  kon: 737000 M⁻¹ s⁻¹

B3: ep7-Ras03 (antibody, part only; not given: RT22 heavy chain, light constant, V domains shown, not shown: another chain or arm of the molecule; a dimerising Fc or GST)
VL: B2 VL with R1D, L4R, L9I, P12S
modifications: chain 1: disulfide bond Cys5-Cys10 closes the Ep7 cyclic peptide
[3]
  Kd: 4.35 nM
  kon: 1.36e+06 M⁻¹ s⁻¹

B4: epRas03 (4-12) (antibody, part only; not given: RT22 heavy chain, light constant, V domains shown, not shown: another chain or arm of the molecule; a dimerising Fc or GST)
VL: B2 VL with I6L, G7R, N8R, L9I
modifications: chain 1: disulfide bond Cys5-Cys10 closes the cyclic peptide
[2]
  Kd: 17.7 nM
  koff: 0.00117 s⁻¹
  kon: 66400 M⁻¹ s⁻¹

B5: epRas03 (4-13) (antibody, part only; not given: RT22 heavy chain, light constant, V domains shown, not shown: another chain or arm of the molecule; a dimerising Fc or GST)
VL: B2 VL with L4Q, G7R, L9I, P12S
modifications: chain 1: disulfide bond Cys5-Cys10 closes the cyclic peptide
[2]
  Kd: 0.185 nM
  koff: 0.00105 s⁻¹
  kon: 5.69e+06 M⁻¹ s⁻¹

B6: ep6-Ras03 (antibody, part only; not given: RT22 heavy chain, light constant, V domains shown, not shown: another chain or arm of the molecule; a dimerising Fc or GST)
VL: B2 VL with R1N, L4R, L9I, P12S
modifications: chain 1: disulfide bond Cys5-Cys10 closes the Ep6 cyclic peptide
[3]
  Kd: 1.86 nM
  kon: 3.02e+06 M⁻¹ s⁻¹

B7: epRas03 (4-14) (antibody, part only; not given: RT22 heavy chain, light constant, V domains shown, not shown: another chain or arm of the molecule; a dimerising Fc or GST)
VL: B2 VL with L4H
modifications: chain 1: disulfide bond Cys5-Cys10 closes the cyclic peptide
[2]
  Kd: 183 nM
  koff: 0.00205 s⁻¹
  kon: 11200 M⁻¹ s⁻¹

B8: epRas03 (4-19) (antibody, part only; not given: RT22 heavy chain, light constant, V domains shown, not shown: another chain or arm of the molecule; a dimerising Fc or GST)
VL: B2 VL with L4R, L9I, P12S
modifications: chain 1: disulfide bond Cys5-Cys10 closes the cyclic peptide
[2]
  Kd: 0.313 nM
  koff: 0.00168 s⁻¹
  kon: 5.38e+06 M⁻¹ s⁻¹

B9: ep3-Ras03 (antibody, part only; not given: RT22 heavy chain, light constant, V domains shown, not shown: another chain or arm of the molecule; a dimerising Fc or GST)
VL: B2 VL with R1E, L4Q, P12S
modifications: chain 1: disulfide bond Cys5-Cys10 closes the cyclic peptide
[3]
  Kd: 2.11 nM
  koff: 0.0036 s⁻¹
  kon: 1.7e+06 M⁻¹ s⁻¹

B10: ep4-Ras03 (antibody, part only; not given: RT22 heavy chain, light constant, V domains shown, not shown: another chain or arm of the molecule; a dimerising Fc or GST)
VL: B2 VL with R1E, N2H, L4H, I6L, N8S, P12S
modifications: chain 1: disulfide bond Cys5-Cys10 closes the cyclic peptide
[3]
  Kd: 12.4 nM
  koff: 0.00905 s⁻¹
  kon: 728000 M⁻¹ s⁻¹

B11: epRas03 (4-27) (antibody, part only; not given: RT22 heavy chain, light constant, V domains shown, not shown: another chain or arm of the molecule; a dimerising Fc or GST)
VL: B2 VL with N2H, L4W, I6L, N8R
modifications: chain 1: disulfide bond Cys5-Cys10 closes the cyclic peptide
[2]
  Kd: 9.94 nM
  koff: 0.00421 s⁻¹
  kon: 424000 M⁻¹ s⁻¹

B12: 6#2-Ras03 (antibody, part only; not given: RT22 heavy chain, constant regions, V domains shown, not shown: another chain or arm of the molecule; a dimerising Fc or GST; large carriers; small tags and cut ends)
VL: HVEFPCTRRGDLFVLCEGSMGSSSNDIQMTQSPSSLSASVGDRVTITCKSSQSLLNSRDGKNYLAWYQQKPGKAPKLLIYWASTRESGVPSRFSGSGSGTDFTLTISSLQPEDFATYFCQQYWYWMYTFGQGTKVEIK
modifications: chain 1: disulfide bond Cys6-Cys16 closes the 6#2 cyclic peptide
[1]
  Kd: 0.722 nM
  koff: 0.000153 s⁻¹
  kon: 212000 M⁻¹ s⁻¹

B13: 5#2-Ras03 (antibody, part only; not given: RT22 heavy chain, constant regions, V domains shown, not shown: another chain or arm of the molecule; a dimerising Fc or GST; large carriers; small tags and cut ends)
VL: ASYNDCQSRGDTFCVADMGSSSNDIQMTQSPSSLSASVGDRVTITCKSSQSLLNSRDGKNYLAWYQQKPGKAPKLLIYWASTRESGVPSRFSGSGSGTDFTLTISSLQPEDFATYFCQQYWYWMYTFGQGTKVEIK
modifications: chain 1: disulfide bond Cys6-Cys14 closes the 5#2 cyclic peptide
[4]
  Kd: 2.63 nM
  koff: 0.00012 s⁻¹
  kon: 45500 M⁻¹ s⁻¹

B14: 5#3-Ras03 (antibody, part only; not given: RT22 heavy chain, constant regions, V domains shown, not shown: another chain or arm of the molecule; a dimerising Fc or GST; large carriers; small tags and cut ends)
VL: SRDETCTPRGDTFAICMGSSSNDIQMTQSPSSLSASVGDRVTITCKSSQSLLNSRDGKNYLAWYQQKPGKAPKLLIYWASTRESGVPSRFSGSGSGTDFTLTISSLQPEDFATYFCQQYWYWMYTFGQGTKVEIK
modifications: chain 1: disulfide bond Cys6-Cys16 closes the 5#3 cyclic peptide
[4]
  Kd: 4.88 nM
  koff: 0.000163 s⁻¹
  kon: 33300 M⁻¹ s⁻¹

B15: TMab4-WYW (antibody, human IgG1, V domains shown)
VH: EVQLVESGGGLVQPGGSLRLSCAASGYTFTSYVMHWVRQAPGKGLEWVSAINPYNDGNYYADSVKGRFTISRDNSRKTLYLQMNSLRAEDTAVYYCARGAYKRGYAMDYWGQGTTVTVSS
VL: DLVMTQSPSSLSASVGDRVTITCKSSQSLFNSRTRKNYLAWYQQKPGKAPKLLIYWASTRESGVPSRFSGSGSGTDFTLTISSLQPEDFATYYCQQYWYWMYTFGQGTKVEIKR
[5]
  fluorescence intensity of antibody located in the cytoplasm (confocal microscopy, HeLa cells, 1 µM, 6 h): 100%

B16: CT03a (antibody, V domains shown)
VH: B15 VH
VL: B15 VL with F30L, Y93F
[5]
  fluorescence intensity of antibody located in the cytoplasm (confocal microscopy, HeLa cells, 1 µM, 6 h): 40.1%

B17: CT03c (antibody, V domains shown)
VH: B15 VH
VL: B15 VL with F30L, R33D, T34D, K36N, N37T, A57L, T59Y, E61A, Y93F
[5]
  fluorescence intensity of antibody located in the cytoplasm (confocal microscopy, HeLa cells, 1 µM, 6 h): 31.8%

B18: CT03e (antibody, V domains shown)
VH: B15 VH
VL: B15 VL with F30L, T34D, R35G, Y93F
[5]
  fluorescence intensity of antibody located in the cytoplasm (confocal microscopy, HeLa cells, 1 µM, 6 h): 19.6%

B19: CT03b (antibody, V domains shown)
VH: B15 VH
VL: B15 VL with F30L, T34D, R35G, K36N, N37T, A57L, T59Y, E61A, Y93F
[5]
  fluorescence intensity of antibody located in the cytoplasm (confocal microscopy, HeLa cells, 1 µM, 6 h): 12.4%

B20: CT03d (antibody, V domains shown)
VH: B15 VH
VL: B15 VL with F30L, R35G, N37T, Y93F
[5]
  fluorescence intensity of antibody located in the cytoplasm (confocal microscopy, HeLa cells, 1 µM, 6 h): 26.3%

B21: 6#6-Ras03 (antibody, part only; not given: RT22 heavy chain, light constant, V domains shown, not shown: another chain or arm of the molecule; a dimerising Fc or GST)
VL: LGPLPCQTRGDLFSLCHYMGSSSNDIQMTQSPSSLSASVGDRVTITCKSSQSLLNSRDGKNYLAWYQQKPGKAPKLLIYWASTRESGVPSRFSGSGSGTDFTLTISSLQPEDFATYFCQQYWYWMYTFGQGTKVEIK
modifications: chain 1: disulfide bond Cys6-Cys16 closes the cyclic peptide
[6]
  fold higher binding affinity than in4-Ras03: 12 fold
[1]
  Kd: 0.843 nM
  koff: 0.000182 s⁻¹
  kon: 216000 M⁻¹ s⁻¹

B22: 6#8-Ras03 (antibody, part only; not given: RT22 heavy chain, light constant, V domains shown, not shown: another chain or arm of the molecule; a dimerising Fc or GST)
VL: B21 VL with L1F, G2P, P3N, L4N, P5Q, T8H, S14A, H17A, Y18D
modifications: chain 1: disulfide bond Cys6-Cys16 closes the cyclic peptide
[1]
  Kd: 0.952 nM
  koff: 0.000175 s⁻¹
  kon: 184000 M⁻¹ s⁻¹

B23: SFITGv6-Ras03 (antibody, part only; not given: RT22 heavy chain, constant regions, V domains shown, not shown: another chain or arm of the molecule; a dimerising Fc or GST; large carriers; small tags and cut ends)
VL: GRCTFRGDLMQLCYPDMGSSSNDIQMTQSPSSLSASVGDRVTITCKSSQSLLNSRDGKNYLAWYQQKPGKAPKLLIYWASTRESGVPSRFSGSGSGTDFTLTISSLQPEDFATYFCQQYWYWMYTFGQGTKVEIK
modifications: chain 1: disulfide bond Cys3-Cys13 closes the SFITGv6 cyclic peptide
[1]
  Kd: 0.457 nM
  koff: 0.000128 s⁻¹
  kon: 279000 M⁻¹ s⁻¹

B24: 5#4-Ras03 (antibody, part only; not given: RT22 heavy chain, constant regions, V domains shown, not shown: another chain or arm of the molecule; a dimerising Fc or GST; large carriers; small tags and cut ends)
VL: EHATNCTTRGDTFVVLCGLGMGSSSNDIQMTQSPSSLSASVGDRVTITCKSSQSLLNSRDGKNYLAWYQQKPGKAPKLLIYWASTRESGVPSRFSGSGSGTDFTLTISSLQPEDFATYFCQQYWYWMYTFGQGTKVEIK
modifications: chain 1: disulfide bond Cys6-Cys17 closes the 5#4 cyclic peptide
[4]
  Kd: 7.01 nM
  koff: 0.000158 s⁻¹
  kon: 22500 M⁻¹ s⁻¹

B25: 5#1-Ras03 (antibody, part only; not given: RT22 heavy chain, constant regions, V domains shown, not shown: another chain or arm of the molecule; a dimerising Fc or GST; large carriers; small tags and cut ends)
VL: LPSGACVVRGDTFQCVSVGMGSSSNDIQMTQSPSSLSASVGDRVTITCKSSQSLLNSRDGKNYLAWYQQKPGKAPKLLIYWASTRESGVPSRFSGSGSGTDFTLTISSLQPEDFATYFCQQYWYWMYTFGQGTKVEIK
modifications: chain 1: disulfide bond Cys6-Cys15 closes the 5#1 cyclic peptide
[4]
  Kd: 1.13 nM
  koff: 6.39e-05 s⁻¹
  kon: 56700 M⁻¹ s⁻¹
[7]
  fold higher affinity than in4-Ras03: 2 fold

B26: in4-Ras03 (antibody, part only; not given: RT22 heavy chain, light constant, V domains shown, not shown: another chain or arm of the molecule; a dimerising Fc or GST)
VL: DGVRQCRGDCFDGPLMGSSSNDIQMTQSPSSLSASVGDRVTITCKSSQSLLNSRDGKNYLAWYQQKPGKAPKLLIYWASTRESGVPSRFSGSGSGTDFTLTISSLQPEDFATYFCQQYWYWMYTFGQGTKVEIK
modifications: chain 1: disulfide bond Cys6-Cys10 closes the in4 cyclic peptide
[4]
  Kd: 2.06 nM
  koff: 0.000166 s⁻¹
  kon: 80600 M⁻¹ s⁻¹
[1]
  Kd: 12.1 nM
  koff: 0.00703 s⁻¹
  kon: 583000 M⁻¹ s⁻¹
